According to patent US20230331862A1 (SHANGHAI GENBASE BIOTECHNOLOGY, published 2023):

Tests used:
[1] = target: T1, CEACAM5 (CD66e) on tumour cells (human, UniProt P06731 35-685, glycosylated (natural, as on tumour cells)); assay: flow cytometry on KATO3 cells, anti-human IgG Fc-APC
T1 construct: whole, on cells; One molecule for CEACAM5 on all three cell lines; the cell line is named under assay; also called natural CEACAM5 antigen; Lovo cells
T1 sequence (looked up): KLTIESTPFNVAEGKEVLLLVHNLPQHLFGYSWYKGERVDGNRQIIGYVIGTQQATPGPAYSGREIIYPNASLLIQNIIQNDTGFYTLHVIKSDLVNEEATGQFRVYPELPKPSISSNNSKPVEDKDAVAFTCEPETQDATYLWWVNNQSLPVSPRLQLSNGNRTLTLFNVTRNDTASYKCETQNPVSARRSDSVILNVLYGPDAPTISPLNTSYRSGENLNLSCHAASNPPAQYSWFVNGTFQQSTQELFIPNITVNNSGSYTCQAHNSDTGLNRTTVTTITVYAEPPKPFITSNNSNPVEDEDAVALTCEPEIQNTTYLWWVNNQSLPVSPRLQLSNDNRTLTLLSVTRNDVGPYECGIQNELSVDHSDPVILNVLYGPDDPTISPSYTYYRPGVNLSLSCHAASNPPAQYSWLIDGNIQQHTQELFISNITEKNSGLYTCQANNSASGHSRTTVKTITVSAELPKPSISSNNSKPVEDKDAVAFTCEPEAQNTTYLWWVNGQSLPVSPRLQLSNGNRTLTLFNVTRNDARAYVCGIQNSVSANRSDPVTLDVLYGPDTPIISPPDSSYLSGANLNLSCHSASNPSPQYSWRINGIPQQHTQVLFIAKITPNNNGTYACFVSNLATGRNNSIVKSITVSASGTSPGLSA
Experimental: KATO3 cells (high expression of CEACAM5) were cultured in RPMI1640 medium containing 10% FBS. After the cells were digested with TrypLE trypsin, they were centrifuged and resuspended in DPBS solution containing 2% BSA (FACS buffer, 4° C.), and added to a U-bottom 96-well plate, 5×10⁵/100 μl/well, the antibody diluted in concentration gradient was added, incubated at 4° C. for 1 hour, the supernatant was discarded after centrifugation; 100 μl of solution containing anti-human IgG Fc-APC secondary antibody was added to each well and incubated at 4° C. for 1 hour, then washing was performed with FACS buffer once, resuspending was performed in 200 μl of FACS buffer, and the fluorescence signal value was read on BD C6 plus.

[2] = target: T2, recombinant CEACAM5 antigen (Sinobiological, 11077-H08H) (UniProt P06731 35-685); assay: ELISA, coated recombinant CEACAM5-His 1 µg/ml, anti-human IgG Fc-HRP
T2 construct: Bought protein; also called CEACAM5-His recombinant protein; CEACAM5-His antigen; not shown: His tag
T2 sequence (looked up): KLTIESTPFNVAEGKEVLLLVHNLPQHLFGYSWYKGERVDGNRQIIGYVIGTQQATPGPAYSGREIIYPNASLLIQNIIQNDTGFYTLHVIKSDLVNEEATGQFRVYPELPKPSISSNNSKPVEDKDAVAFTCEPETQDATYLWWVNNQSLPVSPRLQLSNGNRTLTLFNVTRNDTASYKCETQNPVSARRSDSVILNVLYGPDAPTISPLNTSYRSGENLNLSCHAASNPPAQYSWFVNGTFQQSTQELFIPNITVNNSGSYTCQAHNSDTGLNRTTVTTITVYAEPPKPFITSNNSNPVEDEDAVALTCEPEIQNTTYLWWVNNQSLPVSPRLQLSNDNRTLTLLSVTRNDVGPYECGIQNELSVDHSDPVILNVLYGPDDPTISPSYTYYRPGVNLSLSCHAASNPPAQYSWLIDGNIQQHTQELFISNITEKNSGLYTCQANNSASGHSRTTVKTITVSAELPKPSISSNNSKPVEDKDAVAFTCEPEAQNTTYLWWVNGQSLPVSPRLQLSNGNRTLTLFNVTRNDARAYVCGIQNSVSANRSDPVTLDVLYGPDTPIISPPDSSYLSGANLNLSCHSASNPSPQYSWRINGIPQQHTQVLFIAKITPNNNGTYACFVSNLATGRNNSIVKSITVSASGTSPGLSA
Experimental: Recombinant CEACAM5 antigen (Sinobiological, 11077-H08H) was diluted to 1 μg/ml with DPB S solution, add into a 96-well plate, 100 μl per well, and coated overnight at 2-8° C.; the coating solution was discarded, washing was performed twice with PBS solution, PBS solution containing 2% BSA was added, and blocking was performed at room temperature for 2 hours; the blocking solution was discarded, the humanized antibody diluted in concentration gradient was added, and incubated at 37° C. for 1 hour; the antibody solution was discarded, and washing was performed for 4 times with PBS solution containing 0.05% Tween 20 (PBST solution); the anti-human IgG Fc-HRP secondary antibody was added and incubated at 37° C. for 30 minutes; washing was performed for 4 times with PBST solution, TMB chromogenic substrate was added, and color development was carried out for 5-10 minutes, then the reaction was terminated by adding equal volume of 1M H₂SO₄; the absorbance at 450 nm was read on a microplate reader.

[3] = target: T1, CEACAM5 (CD66e) on tumour cells; assay: competition by flow cytometry on KATO3 cells; competitor mouse M19 (m2F4) at 1 µg/ml, detected with anti-mouse IgG Fc-APC
Experimental: KATO3 cells (high expression of CEACAM5) were cultured in RPMI1640 medium containing 10% FBS. After the cells were digested with TrypLE trypsin, they were centrifuged and resuspended in DPB S solution containing 2% BSA (FACS buffer, 4° C.), and added a U-bottom 96-well plate, 5×10⁵/100 μl/well, the mouse monoclonal antibody M19 antibody (m2F4) was added to 1 μg/ml and the humanized antibody diluted in gradient (50 μg/ml, 3-fold dilution) was added, then incubated at 4° C. for 1 hour, the supernatant was discarded after centrifugation; 100 μl of solution containing anti-mouse IgG Fc-APC secondary antibody was added to each well and incubated at 4° C. for 1 hour, washing was performed once with FACS buffer, resuspending was performed in 200 μl FACS buffer, and the fluorescence signal value was read on BD C6 plus.

[4] = target: T1, CEACAM5 (CD66e) on tumour cells; assay: hybridoma supernatant on Lovo cells, anti-mouse Fc-FITC, Celigo imaging
Experimental: Lovo cells and Lovo CEA KO cells were inoculated in 96-well plates, 10⁴ per well, and cultured overnight, 1-10 μl of hybridoma supernatant was added to Lovo/Lovo CEA KO cell culture plates, incubated for 1 hour, the supernatant was discarded, anti-mouse Fc-FITC fluorescent secondary antibody was added, incubated for 1 hour, the supernatant was discarded, DPBS solution containing 2% BSA was added, the fluorescent signals and FITC staining areas were read and analyzed in Celigo.

B1: Humanized antibody hAb-013 (antibody, V domains shown)
VH: EVQLVESGGGLVQPGGSLRLSCAASGFTFTDYYMDWVRQAPGKALEWVGFTRNKVNGDTTEYAASVKGRFTISRDDSKNSLYLQMNSLKTEDTAVYYCARDKGIAYYFDYWGQGTLVTVSS
VL: QIVLTQSPATLSASPGERATLSCRASSSVSYIHWYQQKPGQSPRPLIYGTSNLASGVPARFSGSGSGTDFTLTISSLEPEDAAVYYCQQWSSNLSTFGGGTKVEIK
notes: also called hM19-11
B1 showed an EC50 [1] of 12.7 µg/mL, an Emax [1] of 49.3% and an EC50 [2] of 6.1 µg/mL. For the same binder, the “Emax Inhibition, %” value [3] was 89% and the IC50 [3] was 5.2 µg/mL.

B2: Humanized antibody hAb-006 (antibody, V domains shown)
VH: EVQLVESGGGLVQPGGSLRLSCAASGFTFTDYYMNWVRQAPGKGLEWLGFIRNKVNGDTTEYSASVKGRFTISRDISKNSLYLQMNSLKTEDTAVYYCARDKGIAYYFDYWGQGTLVTVSS
VL: DIVLSQSPGTLSLSPGERATLSCRASSSVSYIHWYQQKPGQAPRPWIHGTSNLASGIPDRFSGSGSGTDYTLTISRLEPEDFAVYYCQQWSSNLSTFGGGTKVEIK
notes: also called hM19-4
B2 was tested, and the EC50 [1] was 5.7 µg/mL, the Emax [1] was 118% and the EC50 [2] was 3.11 µg/mL. The “Emax Inhibition, %” value [3] was 47.2% and the IC50 [3] was 6.9 µg/mL.

B3: Humanized antibody hAb-005 (antibody, V domains shown)
VH: EVQLVESGGGLVQPGGSLRLSCAASGFTFTDYTMSWVRQAPGKALEWVGFIRNKVNGDTTEYSDSVEGRFTISRDNSKNTLYLQMNSLRAEDTAVYYCARDKGIAYYFDYWGQGTLVTVSS
VL: DIQLTQSPSSLSASVGDRVTITCRASSSVSYIHWYQQKPGKSPKPWIYGTSNLASGVPSRFSGSGSGTDYTLTISSLQPEDAATYYCQQWSSNLSTFGQGTKVEIK
notes: also called hM19-3
For B3, the EC50 [1] was 3250 µg/mL, the Emax [1] was 9.1% and the binding result [2] was “no binding”.

B4: Humanized antibody hAb-009 (antibody, V domains shown)
VH: EVQLVESGGGLVQPGGSLRLSCAASGFTFTDYYMNWVRQAPGKALEWLGFIRNKVNGDTTEYAASVKGRFTISRDDSKNSLYLQMNSLKTEDTAVYYCARDKGIAYYFDYWGQGTLVTVSS
VL: EIVLTQSPATLSASPGERATLSCRASQSVSYIHWYQQKPGQSPRPWIHGTSNLATGVPARFSGSGSGTDFTLTISSLEPEDAAVYYCQQWSSNLSTFGGGTKVEIK
notes: also called hM19-7
Binder B4 has an EC50 [1] of 1.8 µg/mL, an Emax [1] of 109% and an EC50 [2] of 2.87 µg/mL. The “Emax Inhibition, %” value [3] was 62.7% and the IC50 [3] was 2.7 µg/mL.

B5: Humanized antibody hAb-010 (antibody, V domains shown)
VH: EVQLVESGGGLVQPGGSLRLSCAASGFTFTDYYMDWVRQAPGKALEWVGFIRNKVNGDTTEYAASVKGRFTISRDDSKNSLYLQMNSLKTEDTAVYYCARDKGIAYYFDYWGQGTLVTVSS
VL: EIVLTQSPATLSASPGERATLSCRASSSVSYIHWYQQKPGQSPRPLIYGTSNRATGVPARFSGSGSGTDFTLTISSLEPEDAAVYYCQQWSSNLSTFGGGTKVEIK
notes: also called hM19-8
With B5 the EC50 [1] was 1.3 µg/mL, the Emax [1] was 60.6% and the EC50 [2] was 3.56 µg/mL. The “Emax Inhibition, %” value [3] was 75% and the IC50 [3] was 2.3 µg/mL.

B6: Humanized antibody hAb-016 (antibody, V domains shown)
VH: EVQLVESGGGLVQPGGSLRLSCAASGFTFTDYYMDWVRQAPGKALEWVGFTRNKVNGDTTEYAASVKGRFTISRDDSKNSLYLQMNSLKTEDTAVYYCARDKGIAYYFDYWGQGTLVTVSS
VL: EIVLTQSPGTLSASPGERATLSCRASSSVSYIHWYQQKPGQSPRPLIYGTSNLASGVPDRFSGSGSGTDFTLTISRLEPEDAAVYYCQQWSSNLSTFGGGTKVEIK
notes: also called hM19-14
With B6 the EC50 [1] was 3.2 µg/mL, the Emax [1] was 48.4% and the EC50 [2] was 4.32 µg/mL. For the same binder, the “Emax Inhibition, %” value [3] was 73.2% and the IC50 [3] was 6.4 µg/mL.

B7: Humanized antibody hAb-017 (antibody, V domains shown)
VH: EVQLVESGGGLVQPGGSLRLSCAASGFTFTDYYMDWVRQAPGKALEWVGFTRNKVNGDTTEYAASVKGRFTISRDDSKNSLYLQMNSLKTEDTAVYYCARDKGIAYYFDYWGQGTLVTVSS
VL: EIVLTQSPATLSASPGERATLSCRASSSVSYIHWYQQKPGQSPRPLIYGASNLASGVPARFSGSGSGTDFTLTISSLEPEDAAVYYCQQWSSNLSTFGGGTKVEIK
notes: also called hM19-15
With B7 the EC50 [1] was 2.2 µg/mL, the Emax [1] was 57.7% and the EC50 [2] was 7.05 µg/mL. For the same binder, the “Emax Inhibition, %” value [3] was 73.9% and the IC50 [3] was 4.5 µg/mL.

B8: Humanized antibody hAb-003 (antibody, V domains shown)
VH: EVQLVESGGGLVQPGGSLRLSCAASGFTFTDYFMNWVRQAPGKALEWVGQMRNKVNGDTTEYAESVEGRFTISRDDSKNSLYLQMNSLKTEDTAVYYCARDKGIAYYFDYWGQGTLVTVSS
VL: DIQMTQSPSSLSASVGDRVTITCRASSSVSYIHWYQQKPGKSPKPLIYGTSNLASGVPSRFSGSGSGTDFTLTISSLQPEDAATYYCQQWSSNLSTFGQGTKLEIK
notes: also called hM19-1
B8 showed an EC50 [1] of 2.7 µg/mL, an Emax [1] of 85.1% and an EC50 [2] of 3.69 µg/mL. For the same binder, the “Emax Inhibition, %” value [3] was 51.3% and the IC50 [3] was 3.9 µg/mL.

B9: M18 (7G1), mouse hybridoma antibody (antibody, V domains shown)
VH: QIQLVQSGPELKKPGETVKISCKASGYTFTTYGMTWVKQAPGKGLKWMGWINTYSGVPTYIDDFKGRFAFSLETSASTAYLQINNLKNEDTATYFCGRKDLLGFMDYWGQGTSVTVSS
VL: DIQMTQSPSSLSASLGGKVTITCKTSQDINKFMAWYQHKPGKGPRLLIRYTSTLQPGIPSRFSGSGSGRDYSFSIRNLEPEDIATYYCLQYDDLTWTFGGGTKLEI
notes: Hybridoma supernatant, detected with anti-mouse Fc
For B9, the Lovo binding percentage [4] was 89.5%.

B10: M7 (11B6), mouse hybridoma antibody (antibody, V domains shown)
VH: EVQLQQSGAELVRPGASVKLSCTVSGFNIKDDYMHWVKQRPEQGLEWIGWIDPENGDTEYASKFQGKATITADTSSNSAYLQLSSLTSEDTAVYYCTFIYYVNPHYYAMDYWGQGTSVTVSS
VL: QIVLTQSPAIMSASPGEKVTITCSATSSVSYMHWFQQKPGTSPKLWIYSTSNLASGVPARFSGSGSGTSYSLTISRVEAEDAATYYCQQRSSYPLTFGAGTKLELK
notes: as for B9
B10 gave a Lovo binding percentage [4] of 54.6%.

B11: M17 (6A8), mouse hybridoma antibody (antibody, V domains shown)
VH: EVQLQQSGAELVRPGASVKLSCTASGFNIKDDYMHWVKQRPEQGLEWIGWIDPENGDTEYASKFQGKATITADTSSNTAYLLLSSLTSEDTAVYYCTTIYYYGSRGAMDYWGQGTSVTVSS
VL: QIVLTQSPAIMSASPGEKVTITCSASSSVSYMHWFQQKPGTSPKLWIYTTSTLASGVPARFSGSGSGTSYFLTISRMEAEDAATYYCHQRSSYPLTFGAGTKLELK
notes: as for B9
Work on B11 yielded a Lovo binding percentage [4] of 34.7%.
